Drawing on PMC4541722, this text covers Km, kcat and kcat/Km for one protein.

Substrate in data set [1]: Nc1ccn([C@H]2C[C@H](O)[C@@H](CO)O2)c(=O)n1
The data set is described as follows: HPLC deamination assay, non-linear regression. Type of data set: biochemical, Homo sapiens. The following applies: PBS, 37 °C, 10 min, 11 nM enzyme.

Substrate in data set [2]: Nc1ccn([C@@H]2O[C@H](CO)[C@@H](O)C2(F)F)c(=O)n1
The experiment in a line: HPLC deamination assay, non-linear regression. Type of data set: biochemical, Homo sapiens. Particulars: PBS, 37 °C, 10 min, 11 nM enzyme.

B1: CDAHuman (Homo sapiens) (protein)
chain: MAQKRPACTLKPECVQQLLVCSQEAKKSAYCPYSHFPVGAALLTQEGRIFKGCNIENACYPLGICAERTAIQKAVSEGYKDFRAIAIASDMQDDFISPCGACRQVMREFGTNWPVYMTKPDGTYIVMTVQELLPSSFGPEDLQKTQ
For B1, in data set [1], the Michaelis-Menten constant (Km) came to 373 ± 138 µM, the kcat stood at 7.8 ± 0.64 s⁻¹ and the kcat/Km was determined as 21000 M⁻¹ s⁻¹. Moreover, in data set [2], the Michaelis-Menten constant (Km) was found to be 3080 ± 598 µM, the catalytic constant (kcat) was found to be 14 ± 0.91 s⁻¹ and the specificity constant (kcat/Km) was determined as 4000 M⁻¹ s⁻¹.

One may read the Km as the substrate concentration at which the rate is half of its maximum. What is called kcat is the number of substrate molecules converted per active site and unit of time at saturation. For orientation: kcat/Km means the turnover number divided by the Michaelis constant.
